Experimental data: PMC8745299, “Generation of Lasso Peptide-Based ClpP Binders” (International Journal of Molecular Sciences, 2021)
Bridge positions count the residues as written; N and C are the ends. Ends that are not written are not given here.

Legend:
[1] = test system: ClpPs from different organisms; settings: fully assembled ClpX hexamer; cited from earlier work
From the text: ClpX carries six coupled IGF motifs in a rather favorable orientation.

BsClpP = target: T1, BsClpP (Bacillus subtilis, UniProt P80244); assay: BsClpP peptidase activity, preparation not specified; type: biochemical, B. subtilis; settings: summary in discussion
T1 construct: His-tag (C); made in house; host or cells: E. coli BL21 (DE3)
T1 sequence (P80244 whole entry): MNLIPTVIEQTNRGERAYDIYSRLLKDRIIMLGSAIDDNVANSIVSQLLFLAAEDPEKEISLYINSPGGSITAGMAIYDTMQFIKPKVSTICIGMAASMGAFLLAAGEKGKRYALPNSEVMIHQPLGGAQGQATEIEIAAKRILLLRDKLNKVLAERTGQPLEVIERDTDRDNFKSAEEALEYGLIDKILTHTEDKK
Description: (§1) Peptide degradation assays were performed in black flat-bottom 96-well plates with a total reaction volume of 100 μL and reaction temperatures of 32 °C and 37 °C for SaClpP and BsClpP, respectively. Stock solutions of ADEP2 and MccJ25 WT or variants were dissolved in DMSO and pre-diluted to 100× of the final concentration. Accordingly, 1 μL of the respective stock solution was placed at the bottom of the wells. […] 50 μL of a 2× enzyme solution (final assay concentration: 1 μM) in activity buffer was added to the plate and incubated for 15 min at 32 °C and 37 °C for SaClpP and BsClpP activity assays, respectively. The enzyme reaction was started by addition of 49 μL of a solution of the fluorogenic model peptide substrate Suc-Leu-Tyr-AMC in activity buffer at a final concentration of 200 μM. For SaClpP assays, the activity buffer was comprised of 100 mM NaCl and 100 mM HEPES at pH 7. BsClpP activity buffer (50 mM Tris-HCl, 25 mM MgCl2, 200 mM KCl, 2 mM DTT, pH 8) was used in BsClpP assays as well as in SaClpP experiments, where the buffer composition was supposed to lead to oligomeric breakdown of the SaClpP tetradecamer to allow testing the activity retaining effect of ClpP agonists. The fluorescence read-out was measured using a Tecan (Crailsheim, Germany) M200Pro plate reader (excitation/emission: 380/460 nm) every 30–60 s for 1 h. Enzyme velocity was determined by linear regression of the initial segment of the fluorescence-time plot in GraphPad Prism 5 (GraphPad Software, San Diego, CA, USA). All assays were performed in triplicate and repeated at least two times.

[2] = cited from earlier work
From the text: MccJ25 is exceptionally stable, even for lasso peptide standards.

Enterobacteriaceae = settings: cited from earlier work
From the text: (§2) Microcin J25 (MccJ25) is the most well-studied lasso peptide (Figure 2A). […] MccJ25 enters its target cells through hijacking the TonB-dependent siderophore receptor FhuA [8, 19, 20] which explains its narrow activity spectrum. MccJ25 originates from Escherichia coli AY25 [13] and thus can be produced very well heterolo ...

[3] = test system: Gram-negative RNA polymerase; settings: blocking of NTP uptake channel; cited from earlier work
From the text: as §2

thermolysin = settings: cleavage e.g. between Phe10 and Val11; gas phase and solution; cited from earlier work
SaClpP = target: T2, SaClpP (Staphylococcus aureus, UniProt Q2G036); assay: Peptide (Suc-LY-AMC) degradation by SaClpP in destabilizing Tris buffer pH 8; type: biochemical, S. aureus; set-up: Strep-tag (C); made in house; host or cells: E. coli BL21 (DE3)
T2 sequence (Q2G036 1-195): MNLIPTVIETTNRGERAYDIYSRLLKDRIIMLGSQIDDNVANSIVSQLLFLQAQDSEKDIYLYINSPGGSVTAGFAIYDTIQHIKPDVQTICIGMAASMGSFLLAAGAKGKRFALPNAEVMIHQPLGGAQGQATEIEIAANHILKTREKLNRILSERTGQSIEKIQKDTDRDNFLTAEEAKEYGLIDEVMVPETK
From the text: In order to assess the different MccJ25 variants, we first chose S. aureus ClpP (SaClpP) as a model peptidase and performed in vitro degradation assays with the fluorogenic model peptide substrate Suc-LY-AMC. […] To investigate whether the MccJ25 variants can exert a stabilizing effect on the oligomeric structure of tetradecameric SaClpP, we conducted peptide degradation assays under destabilizing conditions employing a Tris buffer at pH 8.
This experimental setup was then used to differentiate the MccJ25 variants regarding their effect on ClpP stability. […] The apparent affinity constant was deduced from enzyme activity assays and represents the effector molecule concentration at half maximal stimulation of enzyme activity (the lower the apparent affinity constant, the higher the affinity). To exclude that 12IGF serves as a SaClpP substrate, we incubated a mixture of SaClpP and 12IGF under assay conditions for up to 260 min.
as §1

[4] = target: T3, S. aureus ClpP (Staphylococcus aureus), Q2G036; assay: SEC; analytical gel filtration, Superdex 200 3.2 Increase; SaClpP in Tris buffer pH 8 (50 mM Tris-HCl, 25 mM MgCl2, 200 mM KCl, 2 mM DTT) with 12IGF; settings: remark: other sources report otherwise
T3 chain: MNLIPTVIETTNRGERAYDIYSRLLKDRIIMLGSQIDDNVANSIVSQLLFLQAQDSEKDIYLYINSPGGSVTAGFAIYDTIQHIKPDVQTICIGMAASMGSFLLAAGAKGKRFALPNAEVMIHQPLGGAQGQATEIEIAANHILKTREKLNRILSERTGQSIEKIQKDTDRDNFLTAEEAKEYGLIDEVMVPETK

[5] = target: T3, S. aureus ClpP (Staphylococcus aureus), …; assay: SEC; analytical gel filtration, Superdex 200 3.2 Increase; SaClpP in Tris buffer pH 8 (50 mM Tris-HCl, 25 mM MgCl2, 200 mM KCl, 2 mM DTT) with ADEP2; settings: remark: other sources report otherwise
[6] = target: T3, S. aureus ClpP (Staphylococcus aureus), …; assay: SEC; analytical gel filtration, Superdex 200 3.2 Increase; SaClpP diluted 10x in BsClpP activity buffer (50 mM Tris-HCl, 25 mM MgCl2, 200 mM KCl, 2 mM DTT, pH 8), no effector; settings: remark: other sources report otherwise
[7] = target: T3, S. aureus ClpP (Staphylococcus aureus), …; assay: SEC; gel filtration of apo-SaClpP in HEPES buffer, pH 7 (purification: Superdex 200 HiLoad 16/600, 100 mM NaCl, 20 mM HEPES, pH 7; analytical: Superdex 200 3.2 Increase, 100 mM HEPES, 100 mM NaCl, pH 7); settings: remark: other sources report otherwise

Question: With “ClpX: Clp-ATPase ClpX hexamer carrying six coupled IGF motifs” as the molecule, how does the “ClpP affinity relative to ADEP2” value [1] read?
Answer: weaker affinities than ADEP2

Question: Which “effect on BsClpP activity” value (BsClpP) does the source give for “microcin J25 (GGAGHVPEYFVGIGTPISFYG; lactam N-8; also: lasso topology, tail threaded through ring) [WT MccJ25, wild type lasso peptide from Escherichia coli AY25]” here?
Answer: neither WT MccJ25 nor several of the other mutated variants constructed in this study affected either of the ClpPs

Question: What about the thermal stability [2] of the same molecule?
Answer: withstand autoclaving at 120 °C

Question: What about the antibiotic activity (Enterobacteriaceae) of the same molecule?
Answer: exhibits antibiotic activity against Enterobacteriaceae

Question: What about the RNA polymerase inhibition [3] of the same molecule?
Answer: inhibition of the Gram-negative RNA polymerase

Question: What about the “stability of [2]rotaxane after loop hydrolysis by thermolysin” value (thermolysin) of the same molecule?
Answer: does not cause ring and tail to dissociate

Question: And the “SaClpP peptidase activity retained in Tris buffer” value (SaClpP; Tris buffer pH 8, 46 μM lasso peptide (Figure 4C), 32 °C, three independent experiments)?
Answer: only the three variants carrying the canonical tripeptide motif at positions 12–14 were able to retain SaClpP activity in Tris buffer

Question: What about the “effect on SaClpP activity” value (SaClpP; summary in discussion) of the same molecule?
Answer: neither WT MccJ25 nor several of the other mutated variants constructed in this study affected either of the ClpPs

B1: S. aureus ClpP, Q2G036 1-195 (enzyme)
chain: MNLIPTVIETTNRGERAYDIYSRLLKDRIIMLGSQIDDNVANSIVSQLLFLQAQDSEKDIYLYINSPGGSVTAGFAIYDTIQHIKPDVQTICIGMAASMGSFLLAAGAKGKRFALPNAEVMIHQPLGGAQGQATEIEIAANHILKTREKLNRILSERTGQSIEKIQKDTDRDNFLTAEEAKEYGLIDEVMVPETK
Question: For B1, which stoichiometry N [4] is on record?
Answer: 14

Question: What about the stoichiometry N [5] of the same molecule?
Answer: 14

Question: And the stoichiometry N [6]?
Answer: 7

Question: What about the stoichiometry N [7] of the same molecule?
Answer: 14
